Test results: US20260234655A1, “Nuclear Targeted DNA Delivery and Compositions for Use in Practicing the Same” (Seawolf Therapeutics, Inc., priority 2022, published 2026)

Test system: growth-arrested HepG2 cells
Test: Number of TFBS repeats in the DTS (TetO, UAS), co-transfection with TetR or Gal4 mRNA in growth-arrested HepG2 cells; GFP intensity
Type: cell-based
Conditions: growth-arrested HepG2 cells; for gene expression over DNA alone on co-transfection with Gal4 mRNA: 12 h; for gene expression over DNA alone on co-transfection with TetR mRNA: 24 h
Procedure: Co-transfection of DNA and mRNA into HepG2 cells. HepG2 cells were purchased from ATCC and grown in complete media (EMEM+10% fetal bovine serum, ATCC). For co-transfection experiments, cells were seeded at confluence onto collagen coated 384-well plates and cultured for 48 hours in complete media followed by 48 hours in complete media supplemented with […] aphidicolin to prevent cell division. After the outgrowth period, cells were transfected using Lipofectamine3000 (Invitrogen) transfection reagent according to the manufacturer's instructions. RNA and DNA were independently complexed with Lipofectamine3000 in Opti-MEM I (Gibco) for 15 minutes. RNA and DNA complexes were then mixed, followed by 1:10 dilution into complete media supplemented with 0.75 μM aphidicolin. Media was aspirated from the plated HepG2 cells and replaced with the transfection mix. DNA was transfected from 17.5 ng to 4.38 ng per well. mRNA was transfected from 70 ng to 0.07 ng per well. Cells were live-imaged using a 4× objective with a GFP filter set and brightfield at 3-hour intervals for 72 hours using a Cytation5 automated microscope (Agilent) attached to a BioSpa8 automated incubator (Agilent). Gen5IPrime (Agilent) image analysis software was used to quantify the number of GFP cells and GFP Intensity per well.
In this study, DNAs were engineered to comprise DTSs having different numbers of TFBS repeats for TetR or Gal4, and the impact of multiple sequences assessed in vitro by co-transfection of mRNA encoding TetR or Gal4 NTF. Growth-arrested HepG2 cells were co-transfected with mRNA encoding the NTF protein along with DNA comprising a cognate DTS and a GFP expression cassette. Each NTF mRNA was paired with a cognate DNA in the co-transfection, where the cognate DNA comprised a DTS with varying numbers of cognate TFBS repeats. For example, the TetR mRNA was paired with DNAs comprising DTSs with 2, 3, 4, 5, 6, or 7 repeats of a TetR TFBS (e.g., TetO). Twenty-four hours after transfection, GFP expression was assessed by measuring GFP fluorescence intensity.
The increase in gene expression appeared to increase with the number of TetO repeats in the DTS, with 7 repeats producing an increase in GFP expression greater than 10-fold at the highest amount of RNA (e.g., 17.5 ng RNA) compared to DNA alone (FIG. 16A).
The Gal4 mRNA was paired with DNAs comprising DTSs with 1, 2, 3, 4, 5, 7, or 10 repeats of a Gal4 TFBS (e.g., UAS). Twelve hours after transfection, GFP expression was assessed by measuring GFP fluorescence intensity. […] The increase in gene expression appeared to increase with the number of UAS repeats in the DTS up to 5 repeats, while the increase in gene expression appeared saturable as 5, 7, and 10 repeats performed similarly (FIG. 16B). Co-transfection of Gal4 mRNA and DNA comprising a DTS of 5, 7, or 10 repeats produced an increase in GFP expression greater than 10-fold at the highest amount of RNA (e.g., 17.5 ng RNA) compared to DNA alone (e.g., 0 ng RNA) in HepG2 cells (FIG. 16B).

## DTS with 1 repeat of UAS: DNA with GFP cassette and DTS of 1 UAS (Gal4 TFBS) (DNA ACACTAGAGTCGGAGGACTGTCCTCCGTGAGTCCTAG; DNA nuclear targeting sequence within DNA carrying a GFP cassette, further chemistry not given here)
  gene expression over DNA alone on co-transfection with Gal4 mRNA: did not substantially increase gene expression

## DTS with 2 repeats of UAS: DNA with GFP cassette and DTS of 2 UAS repeats (DNA CGGAGGACTGTCCTCCGTGAGTCCTAGCGGAGGACTGTCCTCCG; DNA nuclear targeting sequence within DNA carrying a GFP cassette, further chemistry not given here)
  gene expression over DNA alone on co-transfection with Gal4 mRNA: did not substantially increase gene expression

B1: DTS with 3 repeats of TetO: DNA with GFP cassette and DTS of 3 TetO repeats (nucleic acid)
DNA: CTCGAGTTTACTCCCTATCAGTGATAGAGAACGTATGTCGAGTTTACTCCCTATCAGTGATAGAGAACGATGTCGAGTTTACTCCCTATCAGTGATAGAGAACGTATGTCGAGTTTAC
modifications: DNA nuclear targeting sequence within DNA carrying a GFP cassette, further chemistry not given here
notes: DNA with GFP cassette and DTS of 3 TetO repeats
  gene expression over DNA alone on co-transfection with TetR mRNA: did substantially increase gene expression

B2: DTS with 2 repeats of TetO: DNA with GFP cassette and DTS of 2 TetO repeats (nucleic acid)
DNA: CTCGAGTTTACTCCCTATCAGTGATAGAGAACGTATGTCGAGTTTACTCCCTATCAGTGATAGAGAACGATGTCGAGTTTAC
modifications: DNA nuclear targeting sequence within DNA carrying a GFP cassette, further chemistry not given here
notes: DNA with GFP cassette and DTS of 2 TetO repeats
  gene expression over DNA alone on co-transfection with TetR mRNA: did not substantially increase gene expression

B3: DTS with 5 repeats of TetO: DNA with GFP cassette and DTS of 5 TetO repeats (nucleic acid)
DNA: CTCGAGTTTACTCCCTATCAGTGATAGAGAACGTATGTCGAGTTTACTCCCTATCAGTGATAGAGAACGATGTCGAGTTTACTCCCTATCAGTGATAGAGAACGTATGTCGAGTTTACTCCCTATCAGTGATAGAGAACGTATGTCGAGTTTACTCCCTATCAGTGATAGAGAACGTATGTCGAGTTTA
  gene expression over DNA alone on co-transfection with TetR mRNA: did substantially increase gene expression

B4: DTS with 4 repeats of TetO: DNA with GFP cassette and DTS of 4 TetO repeats (nucleic acid)
DNA: CTCGAGTTTACTCCCTATCAGTGATAGAGAACGTATGTCGAGTTTACTCCCTATCAGTGATAGAGAACGATGTCGAGTTTACTCCCTATCAGTGATAGAGAACGTATGTCGAGTTTACTCCCTATCAGTGATAGAGAACGTATGTCGAGTTTAC
  gene expression over DNA alone on co-transfection with TetR mRNA: did substantially increase gene expression

B5: DTS with 6 repeats of TetO: DNA with GFP cassette and DTS of 6 TetO repeats (nucleic acid)
DNA: CTCGAGTTTACTCCCTATCAGTGATAGAGAACGTATGTCGAGTTTACTCCCTATCAGTGATAGAGAACGATGTCGAGTTTACTCCCTATCAGTGATAGAGAACGTATGTCGAGTTTACTCCCTATCAGTGATAGAGAACGTATGTCGAGTTTACTCCCTATCAGTGATAGAGAACGTATGTCGAGTTTATCCCTATCAGTGATAGAGAACGTATGTCGAGTTTAC
  gene expression over DNA alone on co-transfection with TetR mRNA: did substantially increase gene expression
